{"source": "patent US20160200815A1", "key": {"[1]": {"molecular_target": "human TIM-3 on cells (human) (UniProt Q8TDQ0)", "assay": "cell-based or functional assay"}, "hTIM3-Fc WT (human)": {"molecular_target": "hTIM3-Fc WT (human)", "assay": "ELISA, construct coated on plate"}, "[2]": {"molecular_target": "hTIM3-Fc murine BC loop (human, BC loop replaced by mouse TIM-3)", "assay": "ELISA, construct coated on plate"}, "[3]": {"molecular_target": "hTIM3-Fc murine CC′ loop (human, CC′ loop replaced by mouse TIM-3)", "assay": "ELISA, construct coated on plate"}, "[4]": {"molecular_target": "hTIM3-Fc murine C′C″ loop (human, C′C″ loop replaced by mouse TIM-3)", "assay": "ELISA, construct coated on plate"}, "[5]": {"molecular_target": "hTIM3-Fc murine DE loop (human, DE loop replaced by mouse TIM-3)", "assay": "ELISA, construct coated on plate"}, "[6]": {"molecular_target": "hTIM3-Fc murine FG loop (human, FG loop replaced by mouse TIM-3)", "assay": "ELISA, construct coated on plate"}}, "data": [{"substance": "anti-TIM-3 mAb F38-2E2 (BioLegend, 345010) (antibody)", "values": [{"measurement": "IL-2 secretion by SEB-activated PBMCs (% of the activity of anti-PD-L1)", "setting": "[1]", "value": 50}, {"measurement": "Absorbance at 450 nm", "setting": "hTIM3-Fc WT (human)", "value": 1.34, "unit": "A450"}, {"measurement": "Absorbance at 450 nm", "setting": "[2]", "value": 1.23, "unit": "A450"}, {"measurement": "Absorbance at 450 nm", "setting": "[3]", "value": 0.094, "unit": "A450"}, {"measurement": "Absorbance at 450 nm", "setting": "[4]", "value": 1.48, "unit": "A450"}, {"measurement": "Absorbance at 450 nm", "setting": "[5]", "value": 0.978, "unit": "A450"}, {"measurement": "Absorbance at 450 nm", "setting": "[6]", "value": 1.48, "unit": "A450"}]}]}
